Here are results for 167 variants from the RNAGym collection of RNA variant scans (doi:10.7554/elife.80360).

B1: Hairpin Ribozyme (parent)
chain: GUCCUCUUUCACGUGCGCGUGAAAGAGAGAAGUGAACCAGAGAAACACACGUUGUGGUAUAUUACCUGGUA

This series covers variants of B1. Put plainly: self-cleavage, relative activity (ratio to wild type); higher = more cleavage; co-transcriptional.
As for U53C A71U, the self-cleavage amounted to 0.82. For the variant U52G A71U, the self-cleavage worked out at 0.572. For U53G A59U, the self-cleavage was 0.119. On to G54A U58C, for which the self-cleavage came out at 0.635. As to G54A U58G, the self-cleavage was 0.178. G54A A64U: the self-cleavage is 0.114. Turning to G54A A64G, the self-cleavage is 0.403. For G54A A64C, the self-cleavage was 0.152. Consider U55A U67G, for which the self-cleavage is 0.27. Turning to U55A U67A, the self-cleavage was 0.219.

As for U53A G69U, the self-cleavage worked out at 0.26.

For the variant U53A G69C, the self-cleavage stood at 0.19. As to G54C G69U, the self-cleavage was found to be 0.113.

In the case of U55A U60G, the self-cleavage was determined as 0.33. As to U55A U60A, the self-cleavage came to 0.245. With U55C U58A, the self-cleavage turned out to be 0.257.

With U53G U62G, the self-cleavage was determined as 0.315. As for U53G G54A, the figure is 0.569. On to U52G U62A, for which the self-cleavage turned out to be 0.187. The value for U53C U60C was 1.5; that for U55C G68A was 0.166. As for G54A U55C, the figure is 0.502. Regarding U52G G69U, the self-cleavage is 0.27. Turning to U55A G69C, the self-cleavage is 0.217. As for G54U C65U, the figure is 0.171.

As for U53G U70G, the self-cleavage was 0.848.

Regarding U53G U55G, the self-cleavage came to 0.327. G54C U55G: the self-cleavage is 0.25.

Consider U52C U62C, for which the self-cleavage stood at 0.248. As for U53C G57A, the self-cleavage came to 0.326. On to U53C G57C, for which the self-cleavage worked out at 0.244. The value for G54U U63C was 0.214. As for U53G A61U, the figure is 0.186.

Take U52G C66A: the self-cleavage was 0.189. U55G A64G: the self-cleavage worked out at 0.266.

For the variant G54A C65U, the self-cleavage is 0.102. Turning to U55C U62C, the self-cleavage was 0.315. For U55C U62A, the self-cleavage was 0.106. Take U55C U67G: the self-cleavage came out at 0.113. As for U55C U67A, the self-cleavage stood at 0.177. For the variant U52G C65G, the self-cleavage was determined as 0.266. In the case of U55A, the self-cleavage is 0.258.

U55C: the self-cleavage came out at 0.25. Take U55G: the self-cleavage was 0.297. Turning to U52G U70G, the self-cleavage was 0.933.

G54A A71C: the self-cleavage was 0.977.

With U55C G69A, the self-cleavage came to 0.166. Consider U55C G69U, for which the self-cleavage stood at 0.159. As for U55C G69C, the figure is 0.183. As to U53C G69A, the self-cleavage was found to be 0.607.

On to U53C G69C, for which the self-cleavage turned out to be 0.43. As for U52G A61G, the self-cleavage came out at 0.163.

U52G A61U: the self-cleavage amounted to 0.0725. Turning to U55A A61C, the self-cleavage is 0.104.

With G54C U67A, the self-cleavage was found to be 0.167.

Take U55G A61G: the self-cleavage is 0.0963. The value for U55A G57U was 0.146. For the variant G54A G69A, the self-cleavage is 0.137. For G54A G56U, the self-cleavage was determined as 0.104.

Regarding G54A G56A, the self-cleavage worked out at 0.0848. Consider U55A A64G, for which the self-cleavage was 0.195. Consider G54A U67G, for which the self-cleavage stood at 0.157. Turning to U55G G56C, the self-cleavage was 0.107.

As for U55C U60C, the self-cleavage was 0.4.

U53C U58A: the self-cleavage worked out at 0.709. As for U53A U58G, the figure is 0.603. For the variant U55G C65U, the self-cleavage turned out to be 0.0906. As for U55G C65G, the figure is 0.256. As for G54C A59G, the figure is 0.0783. For the variant G54C A59U, the self-cleavage was 0.18. The value for U53A A71U was 0.706; that for G54A U62C was 0.195; that for U53A U70A was 0.987.

Regarding U53A U70C, the self-cleavage stood at 0.951. In the case of U53A U70G, the self-cleavage was 0.987.

Consider U55C A59G, for which the self-cleavage was 0.0716. Turning to U55C A59C, the self-cleavage was 0.0877.

In the case of U53C G56U, the self-cleavage amounted to 0.196. As for G54C U60A, the self-cleavage came to 0.272.

Turning to G54C U60C, the self-cleavage is 0.47. Regarding G54C U70C, the self-cleavage was found to be 0.146. With U52G A59U, the self-cleavage is 0.177. For U55G A59U, the self-cleavage is 0.156. As for G54U U58C, the self-cleavage amounted to 0.713. For the variant G54U U58G, the self-cleavage is 0.401. Regarding U55A G68C, the self-cleavage is 0.098. With U55G A71U, the self-cleavage stood at 0.209. U53C U67G: the self-cleavage came out at 0.462. U53C U67A: the self-cleavage turned out to be 0.28.

In the case of U53C U67C, the self-cleavage came to 0.279.

On to U53G C65A, for which the self-cleavage was found to be 0.641.

Regarding U53C C65A, the self-cleavage was found to be 1.06.

Turning to U53C C65G, the self-cleavage turned out to be 0.236. Take U53A U60G: the self-cleavage is 0.684. With G54U A59U, the self-cleavage was found to be 0.178. As for G54U G56U, the figure is 0.203; as for U52G A64C, 0.0463.

With U52G A64G, the self-cleavage was 0.301. Regarding U53A A61G, the self-cleavage is 0.0972.

Regarding U53A A61C, the self-cleavage amounted to 0.178. As for U52C U58C, the self-cleavage worked out at 0.755. As to U53A G56C, the self-cleavage was determined as 0.208.

On to U53A G56A, for which the self-cleavage stood at 0.0996.

Consider U55C U63A, for which the self-cleavage came to 0.18. With U55C U63G, the self-cleavage was determined as 0.119. With G54C A64G, the self-cleavage amounted to 0.18.

U55C G57A: the self-cleavage stood at 0.11. As for U52G U67C, the self-cleavage turned out to be 0.203. The value for U55C A71G was 0.388; that for U55C A61U was 0.281; that for U52C U63A was 0.206. Take U52C U63C: the self-cleavage turned out to be 0.226. For the variant U55A U70A, the self-cleavage amounted to 0.181. As for U53C G54A, the self-cleavage is 0.418.

Regarding U53G U67G, the self-cleavage was 0.119. As for U53G U67A, the figure is 0.182; as for U53G U67C, 0.136; as for U53C C66A, 0.249. The value for U53C C66U was 0.69; that for U55A U62C was 0.229; that for U55A U62A was 0.104. For U52G U58G, the self-cleavage stood at 0.498. With U53G G69C, the self-cleavage is 0.316. As for G54A C66G, the self-cleavage came out at 0.113. The value for U53G G57C was 0.202.

With U53A A64G, the self-cleavage amounted to 0.696. As to U53A A64C, the self-cleavage is 0.122. As for G54U U67C, the figure is 0.106; as for G54C G56C, 0.286. Regarding U53C U62C, the self-cleavage was found to be 0.347. The value for G54A G68C was 0.208. As for U53A C66A, the figure is 0.205; as for U55C G56A, 0.0854; as for U55C G56C, 0.114. The value for U52G G56C was 0.0868. On to U53G U58C, for which the self-cleavage came out at 0.987.

For U53G U58G, the self-cleavage was 0.405. G54U U60G: the self-cleavage worked out at 0.29. Regarding G54U U60A, the self-cleavage is 0.252. For U53A U67C, the self-cleavage is 0.279. Consider U55A A71U, for which the self-cleavage amounted to 0.18. The value for G54U G68U was 0.302. As for G54A A59C, the figure is 0.307. On to U52G U63C, for which the self-cleavage was 0.0944.

As for U55A U63G, the self-cleavage turned out to be 0.142. With U55A C65U, the self-cleavage amounted to 0.21. In the case of U55G C66G, the self-cleavage turned out to be 0.251. For the variant G54C C66A, the self-cleavage amounted to 0.169. On to G54A U63G, for which the self-cleavage was 0.172.

Regarding U52G U55G, the self-cleavage was 0.398.

As for U52G U55C, the self-cleavage worked out at 0.193. The value for U52G U55A was 0.135.

For U53G C66U, the self-cleavage came to 0.552. In the case of U53G C66G, the self-cleavage came to 0.152.

Consider G54A A61G, for which the self-cleavage came out at 0.397. Take G54A A61C: the self-cleavage is 0.192. On to U53A U55C, for which the self-cleavage is 0.256. Consider U53A U55G, for which the self-cleavage was 0.389. For U55C C65G, the self-cleavage amounted to 0.194. Take U53G A64C: the self-cleavage came to 0.0581. As for U53C A61C, the self-cleavage amounted to 0.142. For the variant U52C U67A, the self-cleavage was found to be 0.178. U53G G68C: the self-cleavage came to 0.18. As for U53G G68U, the figure is 0.187; as for U53G U60A, 0.44. Consider U53G U60C, for which the self-cleavage is 1.12. The value for U52C U70A was 1.22.
